Measurements from patent publication US20070167369A1, “Novel use of isolated polypeptide comprising four FAS-1 domains, EM1 domain and RGD motif” (KYUNGPOOK NATIONAL UNIVERSITY INDUSTRY-ACADEMIC COOPERATION …, priority 2004, published 2007).

Experiments:
[1] = tested on: caspase-3; experiment: Caspase-3 activity in HUVECs (Example 7-2); assay type: cell-based, human; settings: control (PBS) at 24 hours about 250 AU
Description: With respect to the induction of endothelial cell apoptosis (active cell death) by the fas-1 domain, which had been confirmed in Example 7-1 above, the present inventors measured the activity of caspase-3, which is activated when apoptosis occurs, in the cells treated with the fas-1 domain.
HUVECs were spread onto a 100-mm plate (10 ml culture solution) with M199 medium containing 10% FBS, followed by incubation in a 37° C. incubator for 12 hours. After the incubation, the medium was removed from the plate, the cells were added with fresh medium containing 0.1% FBS and further incubated for 24 hours. The cell-containing medium was treated with 5 μM or 20 μM of the fas-1 domain (βig-h3 D-IV) prepared in Example 1. A control was treated with PBS buffer. At 12 hours and 24 hours after the treatment, the cells were harvested. The caspase-3 activity of the cells was measured with an EnzCheck Caspase-3 Assay Kit(#2) (Molecular Probe Co., Eugene, Oreg., USA). Moreover, to verify that measured values are attributed to caspase-3 activity, each of the samples was treated with DEVD-CHO (Molecular Probe Co., Eugene, Oreg., USA) as a caspase-3-specific inhibitor. The control was treated with DMSO.

[2] = tested on: tumors derived from fas-1/B16F10 cells; experiment: Growth of tumors derived from fas-1-overexpressing melanoma cells (Example 10-2); assay type: in vivo, mice; settings: fas-1 domain overexpressed in the implanted B16F10 cells
Description: Each of the fas-1-overexpressing melanoma cells (fas-1/B16F10) and the control cells (pLNCX/B16F10) was suspended in medium at a density of 1×10^7 cells/ml. 0.1 ml of each of the cell suspensions was injected subcutaneously to 5-6 week old mice (Hyochang scientific company, Korea) to make a tumor model. Since the diameter of the tumor reached about 3 mm, the body weight and tumor size of the mice were checked at intervals of three days. The longest diameter and the shortest diameter of the tumor were measured with slide calipers, and the measured values were substituted in the following equation (1) to calculate the volume of the tumor. Volume of tumor=a×b^2/2 [Equation 1]
Wherein, ‘a’ is the shortest diameter of the tumor, and ‘b’ is the longest diameter of the tumor.

[3] = tested on: FAK-Raf-ERK/AKT signal transduction pathway; experiment: Western blot of phosphorylation of FAK-Raf-ERK/AKT pathway enzymes in HUVECs (Example 12); assay type: cell-based, human; settings: 20 μM
Description: To examine the inhibitory mechanism of the fas-1 domain against endothelial cell proliferation and migration, the amount and activity of enzymes related to a FAK-Raf-ERK/AKT signal transduction pathway that is a typical signal transduction pathway in cells was determined by Western blot analysis on HUVECs treated with the fas-1 domain. Since the signal transduction-related proteins undergo phosphorylation during their activation process, the amount of phosphorylated proteins can be measured to predict their activity.
HUVECs were spread onto a 100-mm plate with 10% FBS-containing M199 medium, and incubated in an incubator at 37° C. for 12 hours. Following this, the culture medium was replaced with fresh medium containing 0.1% FBS and then further incubated for 24 hours. After removing the medium, the cells were washed one time with PBS buffer. The cells were detached from the plate by treatment with Trypsin-EDTA solution. The cells were suspended in 10% FBS-containing medium. Fas-1 protein was added to the cell suspension at final concentration of 20 μM. A control was added with PBS buffer. Thereafter, 3 ml of the cell mixture was taken and spread onto a plate coated with collagen. After 30 minutes, 60 minutes and 90 minutes, respectively, the medium was removed from the plate, and the cells were washed one time with PBS buffer. The cells were added with 200 μl of cell lysis buffer and left to stand on ice. The cell lysate was centrifuged at 12,000 rpm for 10 minutes at 4° C., and the supernatant containing a soluble protein was collected. Next, to quantify the concentration of the protein, a Bradford assay (BioRad, Hercules, Calif.) was performed using BSA as the standard protein. 30 μg of each of the sample proteins was electrophoresed on 10% SDS-polyacrylamide gel. The protein on the gel was transferred onto a nitrocellulose membrane, using electrophoresis. The protein transferred to the membrane was reacted with 5% skimmed milk for one hour to block nonspecific protein binding. Following this, it was reacted with the following various antibodies to signal transduction proteins: FAK (BD Science, Franklin Lakes, N.J., USA), pFAK (phosphorylated FAK; Santa Cruz Co., CA, USA), ERK (Sanca Cruz Co., CA, USA), pERK (phosphorylated ERK; Santa Cruz Co., CA, USA), AKT (Cell Signaling Technology Co., Beverly, Mass.), pAKT (phosphorylated AKT; Cell Signaling Technology Co., Beverly, Mass.), Raf1 (Santa Cruz Co., CA, USA) and pRaf1 (phosphorylated Raf1, Santa Cruz Co., CA, USA). The antibodies had been diluted in TBST (50 mM Tris-HCl, pH 7.6, 150 mM NaCl, 0.1% Tween 20) before use. The binding reaction with the antibodies was performed for at least 12 hours in a refrigeration condition. After completion of the reaction, the membrane was washed three times with TBST solution. Thereafter, the membrane was added with HRP-conjugated secondary antibodies (HRP-conjugated-anti-mouse IgG and HRP-conjugated-anti-rabbit IgG; Santa Cruz Co., CA, USA), and a binding reaction with the secondary antibodies was performed at room temperature for one hour. Next, the membrane was washed three times, and then added with 1 ml of ECL as chemiluminescent solution, so that sites where antigen-antibody reaction occurred were visualized by fluorescence. The membrane was exposed to an X-ray film.

[4] = collagen-coated plate, 30, 60, 90 minutes

B1: fas-1 domain: recombinant protein containing the fourth fas-1 domain of human βig-h3 (SEQ ID NO: 64) (protein, listed as Homo sapiens)
chain: MGTVMDVLKGDNRFSMLVAAIQSAGLTETLNREGVYTVFAPTNEAFRALPPRERSRLLGDAKELANILKYHIGDEILVSGGIGALVRLKSLQGDKLEVSLKNNVVSVNKEPVAEPDIMATNGVVHVITNVL
caspase-3 activity ([1]; 5 μM): 300 AU
caspase-3 activity ([1]; 20 μM): 600 AU
growth of tumors derived from melanoma cells [2]: inhibits the in vivo growth of tumors derived from the melanoma cells
absolute amounts of FAK, Raf1, ERK and AKT enzymes in the cells vs control [3]: not significantly different
phosphorylation of AKT [3, 4]: greatly reduced as compared to that of the control
phosphorylation of ERK [3, 4]: no increase in phosphorylation until 90 minutes
phosphorylation of FAK [3, 4]: reduced as compared to the control
phosphorylation of Raf1 [3, 4]: greatly reduced as compared to that of the control
